From patent US20080167229
Where two headings read alike, the source gives them in different places.

B1: N-terminal cleavage product of c-Myc-tagged USP1 (rabbit reticulocyte lysate) (protein)
chain: MPGVIPSESNGLSRGSPSKKNRLSLKFFQKKETKRALDFTDSQENEEKASEYRASEIDQVVPAAQSSPINCEKRENLLPFVGLNNLGNTCYLNSILQVLYFCPGFKSGVKHLFNIISRKKEALKDEANQKDKGNCKEDSLASYELICSLQSLIISVEQLQASFLLNPEKYTDELATQPRRLLNTLRELNPMYEGYLQHDAQEVLQCILGNIQETCQLLKKEEVKNVAELPTKVEEIPHPKEEMNGINSIEMDSMRHSEDFKEKLPKGNGKRKSDTEFGNMKKKVKLSKEHQSLEENQRQTRSKRKATSDTLESPPKIIPKYISENESPRPSQKKSRVKINWLKSATKQPSILSKFCSLGKITTNQGVKGQSKENECDPEEDLGKCESDNTTNGCGLESPGNTVTPVNVNEVKPINKGEEQIGFELVEKLFQGQLVLRTRCLECESLTERREDFQDISVPVQEDELSKVEESSEISPEPKTEMKTLRWAISQFASVERIVGEDKYFCENCHHYTEAERSLLFDKMPEVITIHLKCFAASGLEFDCYGGGLSKINTPLLTPLKLSLEEWSTKPTNDSYGLFAVVMHSGITISSGHYTASVKVTDLNSLELDKGNFVVDQMCEIGKPEPLNEEEARGVVENYNDEEVSIRVGGNTQPSKVLNKKNVEAIGLLGG
B2: c-Myc-tagged USP1 synthesized in rabbit reticulocyte lysate (protein)
chain: MPGVIPSESNGLSRGSPSKKNRLSLKFFQKKETKRALDFTDSQENEEKASEYRASEIDQVVPAAQSSPINCEKRENLLPFVGLNNLGNTCYLNSILQVLYFCPGFKSGVKHLFNIISRKKEALKDEANQKDKGNCKEDSLASYELICSLQSLIISVEQLQASFLLNPEKYTDELATQPRRLLNTLRELNPMYEGYLQHDAQEVLQCILGNIQETCQLLKKEEVKNVAELPTKVEEIPHPKEEMNGINSIEMDSMRHSEDFKEKLPKGNGKRKSDTEFGNMKKKVKLSKEHQSLEENQRQTRSKRKATSDTLESPPKIIPKYISENESPRPSQKKSRVKINWLKSATKQPSILSKFCSLGKITTNQGVKGQSKENECDPEEDLGKCESDNTTNGCGLESPGNTVTPVNVNEVKPINKGEEQIGFELVEKLFQGQLVLRTRCLECESLTERREDFQDISVPVQEDELSKVEESSEISPEPKTEMKTLRWAISQFASVERIVGEDKYFCENCHHYTEAERSLLFDKMPEVITIHLKCFAASGLEFDCYGGGLSKINTPLLTPLKLSLEEWSTKPTNDSYGLFAVVMHSGITISSGHYTASVKVTDLNSLELDKGNFVVDQMCEIGKPEPLNEEEARGVVENYNDEEVSIRVGGNTQPSKVLNKKNVEAIGLLGGQKSKADYELYNKASNPDKVASTAFAENRNSETSDTTGTHESDRNKESSDQTGINISGFENKISYVVQSLKEYEGKWLLFDDSEVKVTEEKDFLNSLSPSTSPTSTPYLLFYKKL
B3: USP1/UAF1 complex (heterodimer) co-expressed in and purified from Sf9 cells, Example 1 (protein)
chain 1: MPGVIPSESNGLSRGSPSKKNRLSLKFFQKKETKRALDFTDSQENEEKASEYRASEIDQVVPAAQSSPINCEKRENLLPFVGLNNLGNTCYLNSILQVLYFCPGFKSGVKHLFNIISRKKEALKDEANQKDKGNCKEDSLASYELICSLQSLIISVEQLQASFLLNPEKYTDELATQPRRLLNTLRELNPMYEGYLQHDAQEVLQCILGNIQETCQLLKKEEVKNVAELPTKVEEIPHPKEEMNGINSIEMDSMRHSEDFKEKLPKGNGKRKSDTEFGNMKKKVKLSKEHQSLEENQRQTRSKRKATSDTLESPPKIIPKYISENESPRPSQKKSRVKINWLKSATKQPSILSKFCSLGKITTNQGVKGQSKENECDPEEDLGKCESDNTTNGCGLESPGNTVTPVNVNEVKPINKGEEQIGFELVEKLFQGQLVLRTRCLECESLTERREDFQDISVPVQEDELSKVEESSEISPEPKTEMKTLRWAISQFASVERIVGEDKYFCENCHHYTEAERSLLFDKMPEVITIHLKCFAASGLEFDCYGGGLSKINTPLLTPLKLSLEEWSTKPTNDSYGLFAVVMHSGITISSGHYTASVKVTDLNSLELDKGNFVVDQMCEIGKPEPLNEEEARGVVENYNDEEVSIRVGGNTQPSKVLNKKNVEAIGLLAAQKSKADYELYNKASNPDKVASTAFAENRNSETSDTTGTHESDRNKESSDQTGINISGFENKISYVVQSLKEYEGKWLLFDDSEVKVTEEKDFLNSLSPSTSPTSTPYLLFYKKL
chain 2: not shown
B4: USP1 with N-terminal His tag, amino acids 670-71 changed from GG to AA (non-cleavable), purified from Sf9 cells (protein)
chain: MPGVIPSESNGLSRGSPSKKNRLSLKFFQKKETKRALDFTDSQENEEKASEYRASEIDQVVPAAQSSPINCEKRENLLPFVGLNNLGNTCYLNSILQVLYFCPGFKSGVKHLFNIISRKKEALKDEANQKDKGNCKEDSLASYELICSLQSLIISVEQLQASFLLNPEKYTDELATQPRRLLNTLRELNPMYEGYLQHDAQEVLQCILGNIQETCQLLKKEEVKNVAELPTKVEEIPHPKEEMNGINSIEMDSMRHSEDFKEKLPKGNGKRKSDTEFGNMKKKVKLSKEHQSLEENQRQTRSKRKATSDTLESPPKIIPKYISENESPRPSQKKSRVKINWLKSATKQPSILSKFCSLGKITTNQGVKGQSKENECDPEEDLGKCESDNTTNGCGLESPGNTVTPVNVNEVKPINKGEEQIGFELVEKLFQGQLVLRTRCLECESLTERREDFQDISVPVQEDELSKVEESSEISPEPKTEMKTLRWAISQFASVERIVGEDKYFCENCHHYTEAERSLLFDKMPEVITIHLKCFAASGLEFDCYGGGLSKINTPLLTPLKLSLEEWSTKPTNDSYGLFAVVMHSGITISSGHYTASVKVTDLNSLELDKGNFVVDQMCEIGKPEPLNEEEARGVVENYNDEEVSIRVGGNTQPSKVLNKKNVEAIGLLAAQKSKADYELYNKASNPDKVASTAFAENRNSETSDTTGTHESDRNKESSDQTGINISGFENKISYVVQSLKEYEGKWLLFDDSEVKVTEEKDFLNSLSPSTSPTSTPYLLFYKKL
B5: native USP1 complex purified from HeLa nuclear extract (protein)
chain 1: MPGVIPSESNGLSRGSPSKKNRLSLKFFQKKETKRALDFTDSQENEEKASEYRASEIDQVVPAAQSSPINCEKRENLLPFVGLNNLGNTCYLNSILQVLYFCPGFKSGVKHLFNIISRKKEALKDEANQKDKGNCKEDSLASYELICSLQSLIISVEQLQASFLLNPEKYTDELATQPRRLLNTLRELNPMYEGYLQHDAQEVLQCILGNIQETCQLLKKEEVKNVAELPTKVEEIPHPKEEMNGINSIEMDSMRHSEDFKEKLPKGNGKRKSDTEFGNMKKKVKLSKEHQSLEENQRQTRSKRKATSDTLESPPKIIPKYISENESPRPSQKKSRVKINWLKSATKQPSILSKFCSLGKITTNQGVKGQSKENECDPEEDLGKCESDNTTNGCGLESPGNTVTPVNVNEVKPINKGEEQIGFELVEKLFQGQLVLRTRCLECESLTERREDFQDISVPVQEDELSKVEESSEISPEPKTEMKTLRWAISQFASVERIVGEDKYFCENCHHYTEAERSLLFDKMPEVITIHLKCFAASGLEFDCYGGGLSKINTPLLTPLKLSLEEWSTKPTNDSYGLFAVVMHSGITISSGHYTASVKVTDLNSLELDKGNFVVDQMCEIGKPEPLNEEEARGVVENYNDEEVSIRVGGNTQPSKVLNKKNVEAIGLLGGQKSKADYELYNKASNPDKVASTAFAENRNSETSDTTGTHESDRNKESSDQTGINISGFENKISYVVQSLKEYEGKWLLFDDSEVKVTEEKDFLNSLSPSTSPTSTPYLLFYKKL
chain 2: not shown

How the values were obtained:
[1] = target: Ubiquitin-Vinyl Sulfone (U-202; Boston Biochem)
[2] = target: Flag-HA-tagged UAF1, expressed in and purified from HeLa cells
[3] = target: T1, Ubiquitin-7-amido-4-methylcoumarin (U-550; Boston Biochem)
[4] = target: monoubiquitinated Flag-HA-tagged FANCD2 protein purified from hydroxyurea-treated HeLa cells, Q9BXW9
[5] = target: T1, Ubiquitin-7-amido-4-methylcoumarin …; assay: Ub-AMC hydrolysis at 2 nM USP1/UAF1 complex, Lineweaver-Burk plot; standard deviation in brackets
[6] = target: Strep-tagged UAF1-ΔWD2 purified from Sf9 insect cells
[7] = target: UAF1 with engineered C-terminal Strep II tag, purified from Sf9 cells
[8] = target: T1, Ubiquitin-7-amido-4-methylcoumarin …; assay: Ub-AMC hydrolysis at 20 nM USP1, Lineweaver-Burk plot; standard deviation in brackets

| Protein | mobility shift in SDS-PAGE with Ub-VS [1] | Km [3] | Ub-AMC cleavage, fluorescence against time, 10 nM protein [3] | kcat [3] [s⁻¹] | in vitro deubiquitination of Ub-FANCD2 [4] | also measured |
| --- | --- | --- | --- | --- | --- | --- |
| B1 | there was a shift of both the full length USP1 and the N-terminal cleavage product in the presence of Ub-VS |  |  |  |  | amount of the N-terminal cleavage product of c-Myc-USP1 after cycloheximide in reticulocyte lysate (anti-c-Myc immunoblot) [2]: the e-USP1-N-Term. band (about 97 kDa) stays faint from 0 min to 2h in Control and grows stronger from 0 min to 2h with + UAF1 |
| B2 | there was a shift of both the full length USP1 and the N-terminal cleavage product in the presence of Ub-VS |  |  |  |  |  |
| B3 |  | decreasing the Km from 1.4 µM to 0.7 µM | rises steeply from about 350 at 0 min to a plateau of about 2000 reached at about 15 min | 0.26 | the UAF11USP1 complex readily deubiquitinated the substrate; about half of the substrate was deubiquitinated | rate of Ub-AMC conversion V (nM/s) against [S] (µM), 2 nM USP1/UAF1 complex [3]: V rises from about 0.19 nM/s at about 0.4 µM to about 0.43 nM/s at 3 µM; the fitted curve flattens but still rises, no plateau; Km [5]: 0.7 µM |
| B4 |  | decreasing the Km from 1.4 µM to 0.7 µM | rises slowly and almost linearly from about 130 at 0 min to about 400 at 40 min | 0.014 | USP1 protein alone was unable to deubiquitinate Ub-FANCD2 | Ub-AMC cleavage, fluorescence against time, 10 nM USP1 alone [3]: slow rise from about 120 at 0 min to about 300 at about 23 min, on one line with USP1 + UAF1-ΔWD2; rate of Ub-AMC conversion V (nM/s) against [S] (µM), 20 nM USP1 [3]: V rises from about 0.09 nM/s at 0.6 µM to about 0.2 nM/s at 3 µM; the fitted curve still rises, no plateau; Ub-AMC cleavage by 10 nM USP1, fluorescence against time, 10 nM UAF1-ΔWD2 added during the run [6]: no stimulation: the two dark traces (USP1 and USP1 + UAF1-ΔWD2) lie on one another, step to about 240 at about 12 min and keep their slope, reaching about 300 at about 23 min; Ub-AMC cleavage by 2 nM USP1, fluorescence against time, 2 nM UAF1 or buffer added during the run [7]: both traces run together from about 130 to about 165 until about 12 min; then + UAF1 steps to about 245 and rises at once in a straight line beyond 500 at about 23 min, while Control steps to about 185 and reaches only about 215 at 25 min; Ub-AMC cleavage by 10 nM USP1, fluorescence against time, 10 nM UAF1 added during the run [7]: the grey trace USP1 + UAF1 runs with the USP1 traces from about 120 to about 200 until about 12 min, then steps to about 310 and rises in a straight line to about 1200 at about 23 min; kcat on Ub-AMC, UAF1/USP1 complex against USP1 alone [7]: augmenting the kcat value 18-fold; kcat/Km on Ub-AMC, UAF1/USP1 complex against USP1 alone [7]: the kcat/Km is 35-fold higher for the UAF1/USP1 complex compared to USP1 alone; substrate turnover of Ubiquitin-AMC after adding UAF1 in an equimolar amount to USP1 [7]: Addition of UAF1 resulted in an instantaneous and robust increase of substrate turnover; Km [8]: 1.4 µM |
| B5 | a mobility shift of both full length and the N-terminal cleavage product of USP1 was observed, demonstrating enzymatic activity of both polypeptides |  |  |  | the USP1 complex could support this reaction |  |
